Data from the supplement of paper PMC10567573.

B1: PPP2R2B (parent)
chain: PSNRSFFSEIISSISDVKFSHSGR
B2: FAM189A2 (parent)
chain: NLAGFILGCQGAQFVSSVPRCDLV

Variants of: B1
Assay: protein stability index of a GFP-peptide fusion (GPS, HEK-293T) (PSI 1-6); higher = more stable
Details: c terminus: a fixed tail appended
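Note: lentivirally expressed fusions sorted by FACS into six bins by GFP to DsRed ratio, PSI derived from sequencing read proportions per bin multiplied by bin number.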

Protein stability index of substitutions, site by site:
D16: W 1.99; Y 1.61
V17: A 2.27; C 2.4; D 3.18; E 3.05; F 2.18; G 2.53; H 3.21; I 2.53; K 2.73; L 2.75; M 2.53; N 2.9; P 2.63; Q 2.81; R 2.31; S 2.5; T 2.72; W 2.49; Y 2.29
K18: A 2.15; C 1.94; D 2.59; E 2.35; F 2.17; G 2.66; H 2.04; I 2.33; L 2.35; M 2.02; N 2.36; P 2.23; Q 2.47; R 2.55; S 2.61; T 2.31; V 2.09; W 2.38; Y 1.97
F19: A 3.07; C 3.03; D 3.52; E 3.58; G 2.86; H 3.02; I 2.43; K 3.02; L 2.93; M 2.88; N 3.15; P 3; Q 2.79; R 2.99; S 3.3; T 3.07; V 2.5; W 1.97; Y 2.57
S20: A 2.39; C 2.12; D 2.88; E 2.94; F 2.02; G 2.26; H 2.18; I 2.22; K 2.7; L 2.41; M 1.95; N 2.27; P 2.48; Q 2.45; R 1.94; T 2.78; V 2.33; W 2.38; Y 1.75
H21: A 2.7; C 2.22; D 2.54; E 2.87; F 1.88; G 2.39; I 2.13; K 2.85; L 2.03; M 2.41; N 2.48; P 2.67; Q 2.26; R 3.27; S 1.93; T 2.11; V 2.04; W 2.31; Y 1.97
S22: A 2.4; C 1.89; D 2.79; E 2.37; F 2.19; G 2.57; H 2.48; I 2.11; K 2.64; L 2.48; M 2.27; N 2.58; P 2.38; Q 2.43; R 2.71; T 2.42; V 2.06; W 1.9; Y 2.2
G23: A 2.31; C 2.36; D 2.72; E 2.7; F 2.09; H 2.27; I 1.88; K 2.49; L 2.08; M 2.25; N 2.79; P 2.74; Q 2.24; R 2.54; S 2.33; T 2.14; V 1.66; W 2.09; Y 2.27
R24: A 2.36; C 1.87; D 3.18; E 2.94; F 1.65; G 2.21; H 1.94; I 1.61; K 2.65; L 1.75; M 1.97; N 2.81; P 2.31; Q 2.39; S 3.12; T 2.33; V 1.59; W 1.98; Y 3.23

Variants of: B2
Assay: as above
Details: c terminus: a fixed tail appended

Protein stability index, by site and new letter:
N1: A 3.77; C 2.92; G 1.51; H 2.03; K 2.77; L 2.75; P 2.63; Q 1.85; R 2.73; W 3.42; Y 3.31
L2: C 1.31; D 3.18; E 2.13; F 2.65; G 1.23; H 1.7; I 3.93; K 2.67; N 1.97; P 1.26; Q 3.01; R 1.87; S 1.55; T 1.76; W 1.35; Y 2.72
A3: D 1.84; E 2.11; F 2.77; H 2; K 2.35; M 3.4; N 4.16; P 1.45; Q 1.03; R 1.72; S 1.12; T 3.18; W 3.4; Y 3.97
G4: C 3.26; D 2.36; F 2.45; M 4.18; N 3.42; P 3.65; T 3.08; Y 4.24
F5: D 2.16; E 2.18; G 1.5; H 2.71; I 5.13; M 1.7; N 2.19; P 3.25; Q 2.27; S 1.87; T 1.86
I6: A 1.46; C 2.3; D 2.68; E 1.49; F 2.78; G 1.79; H 1.64; K 2.29; N 2.11; P 1.6; Q 1.94; R 1.78; S 1.98; T 1.66; V 2.18; W 1.76; Y 2.26
L7: C 2.6; D 2.19; E 1.77; F 2.51; G 1.82; H 1.73; K 1.69; M 2; N 2.75; P 1.43; Q 2.1; R 1.63; S 2.02; T 2.58
G8: D 2.19; F 3.47; I 3.23; K 3.72; L 2.81; P 2.03; R 2.34; T 2.17; W 2.45; Y 3.33
C9: A 2.62; D 1.38; E 2.54; F 2.36; G 2.35; H 3.12; K 1.74; L 1.76; P 1.11; R 1.23; S 2.71; V 2.04
Q10: C 1.49; D 3.6; G 2.63; H 2.76; I 2.87; L 1.53; M 3.99; P 4.29; R 2.51; T 3.84
G11: D 2.76; I 3.71; L 3.39; N 3.08; P 3.59; R 5.06; W 3.48; Y 3.45
A12: C 2.54; D 4.07; E 3.98; F 2.91; H 1.03; K 1.89; L 2.95; P 2.99; R 3.12; W 2.15
Q13: A 4.08; C 2.76; D 2.27; F 3; M 2.01; N 2.93; P 2.31; T 3.16; V 2.53; Y 3.26
F14: A 1.29; E 1.34; H 1.87; K 1.16; M 2.71; N 1.72; P 2.4; Q 1.92; R 1.27; T 1.27; V 2.29; W 2.78; Y 2.9
V15: C 2.72; D 1.55; E 1.94; H 3.13; K 2.19; L 3.14; Q 3.5; R 1.75; Y 2.46
S16: C 2.58; D 1.04; E 2.21; G 3.41; H 1.8; I 3.41; K 3.56
